Measurements: PMC5240567, “New Insights into Cooperative Binding of Homeodomain Transcription Factors PREP1 and PBX1 to DNA”

Experiments:
PREP1hd [1] = molecular target: T1, PREP1hd (UniProt P55347); test: fluorescence polarization; details: FP and EMSA: 20 mM Na/K phosphate pH 7.2, 150 mM NaCl, 5% glycerol, 1 mM TCEP, room temperature (FP 9 nM DNA, 30 min; EMSA gel run at 4 C in 0.5x TBE); NMR: …
T1 sequence: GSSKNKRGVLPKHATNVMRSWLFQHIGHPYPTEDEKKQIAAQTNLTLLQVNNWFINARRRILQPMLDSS

PBX1HD = molecular target: T2, PBX1HD (UniProt P40424 227-317); test: fluorescence polarization; FP and EMSA: 20 mM Na/K phosphate pH 7.2, 150 mM NaCl, 5% glycerol, 1 mM TCEP, room temperature (FP 9 nM DNA, 30 min; EMSA gel run at 4 C in 0.5x TBE); NMR: 20; details: protein: recombinant, tags: GST cleaved (pGEX-6P)
T2 sequence: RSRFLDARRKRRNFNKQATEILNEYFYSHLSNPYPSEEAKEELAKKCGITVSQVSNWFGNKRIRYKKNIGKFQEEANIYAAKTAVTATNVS

PREP1hd [2] = molecular target: T3, PREP1hd (UniProt P55347 257-325); test: as above; details: protein: recombinant, tags: GST cleaved (pGEX-6P), label: 5' 6-FAM (FP)
T3 sequence: T1 sequence

PREP1HD [3] = molecular target: T4, PREP1HD (UniProt P55347 240-344); test: as above; details: protein: recombinant, tags: GST cleaved (pGEX-6P), label: 5' 6-FAM (FP)
T4 sequence: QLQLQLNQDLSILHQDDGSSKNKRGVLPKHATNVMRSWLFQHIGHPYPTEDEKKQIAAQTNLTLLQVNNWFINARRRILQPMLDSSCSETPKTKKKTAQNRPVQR

HOXB1HD [4] = molecular target: T5, HOXB1HD (UniProt P14653 171-266); test: as above; details: protein: recombinant, tags: GST cleaved (pGEX-6P), label: 5' 6-FAM (FP)
HOXB1HD [5] = molecular target: T5, HOXB1HD; test: EMSA; FP and EMSA: 20 mM Na/K phosphate pH 7.2, 150 mM NaCl, 5% glycerol, 1 mM TCEP, room temperature (FP 9 nM DNA, 30 min; EMSA gel run at 4 C in 0.5x TBE); NMR: 20; details: protein: recombinant; tags: GST cleaved (pGEX-6P); label: 5' 6-FAM (FP); unlabeled in EMSA
PREP1hd-C = molecular target: T6, PREP1hd-C (UniProt P55347 257-344); test: fluorescence polarization; FP and EMSA: 20 mM Na/K phosphate pH 7.2, 150 mM NaCl, 5% glycerol, 1 mM TCEP, room temperature (FP 9 nM DNA, 30 min; EMSA gel run at 4 C in 0.5x TBE); NMR: 20; details: protein: recombinant; tags: GST cleaved (pGEX-6P); label: 5' 6-FAM (FP); unlabeled in EMSA and NMR
T6 sequence: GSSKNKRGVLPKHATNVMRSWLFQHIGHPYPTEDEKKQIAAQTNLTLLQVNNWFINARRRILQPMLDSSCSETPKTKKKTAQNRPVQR

PREP1hd-N = molecular target: T7, PREP1hd-N (UniProt P55347 240-325); test: as above; details: protein: recombinant; tags: GST cleaved (pGEX-6P); label: 5' 6-FAM (FP); unlabeled in EMSA and NMR
T7 sequence: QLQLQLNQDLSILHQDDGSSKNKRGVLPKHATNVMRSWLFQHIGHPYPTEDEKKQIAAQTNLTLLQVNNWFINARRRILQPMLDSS

[6] = label: 5' 6-FAM (FP), unlabeled in EMSA

T5 sequence (P14653 171-266): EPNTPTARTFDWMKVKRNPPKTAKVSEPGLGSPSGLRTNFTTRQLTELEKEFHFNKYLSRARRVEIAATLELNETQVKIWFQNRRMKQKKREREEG

Molecule: AGGATAACCTGGGATT (double strand) [Control]
- Kd (PREP1hd [1]): 836 µM

B1: PH (dsDNA)
DNA 1: AGAGTGATTGATAAGG
DNA 2: CCTTATCAATCACTCT
- Kd (PBX1HD; [6]): 2.1 ± 0.3 µM
- Kd (PREP1hd [2]; unlabeled in EMSA): 51.4 ± 2.5 µM
- Kd (PREP1HD [3]; unlabeled in EMSA): 23.5 ± 2 µM
- Kd (HOXB1HD [4]; unlabeled in EMSA): 6.2 ± 0.1 µM

B2: Control* (dsDNA)
DNA 1: CGTCAGCCCTACGGGA
DNA 2: TCCCGTAGGGCTGACG
- Kd (PBX1HD; label: 5' 6-FAM): 2.1 ± 0.1 µM

B3: Control (dsDNA)
DNA 1: AGGATAACCTGGGATT
DNA 2: AATCCCAGGTTATCCT
- Kd (PBX1HD; [6]): 2.5 ± 0.4 µM
- Kd (PREP1HD [3]; unlabeled in EMSA): 159 ± 5.2 µM
- binding result (HOXB1HD [5]): binds

B4: PMH (dsDNA)
DNA 1: AGTGATTGACAGATTC
DNA 2: GAATCTGTCAATCACT
- Kd (PREP1hd-C): 15.5 ± 0.6 µM
- Kd (PBX1HD; label: 5' 6-FAM (FP), unlabeled in EMSA and NMR): 0.36 ± 0.1 µM
- Kd (PREP1hd [2]; unlabeled in EMSA and NMR): 31.8 ± 1.5 µM
- Kd (PREP1HD [3]; unlabeled in EMSA and NMR): 15.4 ± 1 µM
- Kd (HOXB1HD [4]; unlabeled in EMSA and NMR): 2.7 ± 0.2 µM
- Kd (PREP1hd-N): 23.7 ± 2.6 µM

B5: PH* (dsDNA)
DNA 1: AGAGTGATTGATCGGC
DNA 2: GCCGATCAATCACTCT
- Kd (PBX1HD; label: 5' 6-FAM): 3.3 ± 0.5 µM
